Measurements published in patent US20110104713A1, “PRODUCTS AND PROCESSES FOR MODULATING PEPTIDE-PEPTIDE BINDING DOMAIN INTERACTIONS” (priority 2002, published 2011).

Key:
[1] = biological target: T1, GST-Plk1 (full-length) (Homo sapiens, UniProt P53350); test: Plk1 kinase assay (32P-incorporation into casein) with peptide activation; format: biochemical; details: 250 μM peptide pre-incubated 5 minutes at room temperature; three independent experiments
T1 construct: SF9 cells infected with baculoviral GST-Plk1 (full-length) were lysed; made in house; host or cells: SF9 insect cells (baculovirus)
Description: SF9 cells infected with baculoviral GST-Plk1 (full-length) were lysed in 20 mM Hepes/KOH (pH 7.5), 135 mM NaCl, 1% NP40, 5 mM EGTA, 5 μM 13-mercaptoethanol, 35 mM NaF, 0.5 mM Na3VO4, 20 mM β-glycerolphosphate, 3 μM microcystin, 1 μM okadaic acid, 10 μg/mL pepstatin, 10 μg/mL leupeptin, and 10 μg/mL aprotinin. Lysates were incubated for 2 hours at 4° C. with glutathione beads, which were subsequently washed five times with 20 mM Hepes/KOH (pH 7.5), 415 mM NaCl, 0.1% CHAPS, 5 mM EGTA, 5 μM β-mercaptoethanol, 35 mM NaF, and 0.5 mM Na3VO4 at 4° C. Bound proteins were eluted with a buffer containing 30 mM glutathione, 50 mM Hepes/KOH (pH 8.0), 25 mM NaCl, 2 mM MgCl2, 1 mM EGTA, and 5 μM β-mercaptoethanol and dialyzed against 10 mM Hepes, 10 mM NaCl, 1 mM EGTA, 1 mM DTT for 3 hours at 4° C. Kinase reactions were performed in 20 mM Hepes/KOH (pH7.5), 15 mM KCl, 10 mM MgCl2, 1 mM EGTA, 100 µM ATP, 5 μCi γ-[^32P]-ATP, 1 mM DTT, and […] casein for 15 minutes at 30° C. Reaction aliquots were removed at various time points, added to sample buffer, and boiled to arrest phosphorylation. ^32P-incorporation into casein was determined by SDS-PAGE electrophoresis, autoradiography, and densitometry using ImageQuant software (Molecular Dynamics). […]

[2] = test system: centrosomal localization of GST-Plk-1 PBD in U2OS cells; test: Centrosomal localization of GST-Plk-1 PBD in permeabilized U2OS cells with peptide competition; format: cell-based, human; details: 250 μM peptide; nocodazole-arrested, Streptolysin-O permeabilized U2OS cells
Description: U2OS cells were cultured in 8-well chamber slides and arrested at G2/M by treatment with nocodazole (50 ng/mL) for 14 hours. After rinsing with PBS, cells were incubated with 4 μM GST-Plk-1 PBD (residues 326-603) and Streptolysin-O (1 U/ml) in permeabilization buffer (25 mM HEPES (pH 7.9), 100 mM KCl, 3 mM NaCl, 200 mM sucrose, 20 mM NaF, 1 mM NaOVO4) for 20 minutes at 37° C. Cells were fixed in 3% paraformaldehyde/2% sucrose for 10 minutes at room temperature and extracted with a 0.5% Triton X-100 solution containing 20 mM Tris-HCl (pH 7.4), 50 mM NaCl, 300 mM sucrose, and 3 mM MgCl2 for 10 minutes at RT. […] Cells were examined using a Nikon Eclipse E600 fluorescence microscope equipped with a SPOT RTcamera and software (Diagnostic Instruments, Livingston, Scotland). Images were analyzed using NIH Image. […]
The normalized intensity of centrosome-specific Alexa Fluor 488 staining (N.I.AF488) or Texas Red staining (N.I.TR) above background was defined as ([Icentrosome−1cell]/Icell) where Icentrosome indicates the fluorescence intensity of either Alexa-Fluor 488 or Texas Red averaged over the centrosome and Icell indicates the overall fluorescence intensity averaged over the entire cell. The relative GST-PBD/γ-tubulin specific staining was then calculated as N.I.AF488/NITR.

T1 sequence (P53350 whole entry): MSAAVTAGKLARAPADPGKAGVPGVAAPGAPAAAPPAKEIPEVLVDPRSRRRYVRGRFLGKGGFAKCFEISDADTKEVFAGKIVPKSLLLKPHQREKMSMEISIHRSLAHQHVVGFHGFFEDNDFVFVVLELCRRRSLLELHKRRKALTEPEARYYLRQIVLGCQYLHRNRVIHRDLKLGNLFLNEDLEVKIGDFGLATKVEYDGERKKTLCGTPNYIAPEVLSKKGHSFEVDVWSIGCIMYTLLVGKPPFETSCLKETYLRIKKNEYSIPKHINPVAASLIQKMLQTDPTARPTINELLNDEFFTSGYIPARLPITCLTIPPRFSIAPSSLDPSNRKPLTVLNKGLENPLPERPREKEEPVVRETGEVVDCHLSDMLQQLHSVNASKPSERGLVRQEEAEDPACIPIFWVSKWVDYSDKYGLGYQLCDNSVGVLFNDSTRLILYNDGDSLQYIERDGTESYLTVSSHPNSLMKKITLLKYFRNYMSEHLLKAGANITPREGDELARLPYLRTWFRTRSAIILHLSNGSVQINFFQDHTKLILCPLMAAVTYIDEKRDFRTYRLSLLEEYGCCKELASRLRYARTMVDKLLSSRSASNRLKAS

With “MAGPMQ-S-T-P-LNGAKK (MAGPMQSTPLNGAKK) [PoloBoxtide-8T]” the “enhancement of Plk1 kinase activity (rate of casein phosphorylation), factor” value [1] was “had no effect” and the “effect of peptide on centrosomal localization of Plk-1 PBD” value [2] was “unaffected”.
